± gives the standard deviation of the averaged measurements.
Experiments:
[1] = tested on: VchCAST RNA-guided transposition machinery (E. coli BL21(DE3) host, lacZ target); assay: relative integration efficiency (T-RL orientation) vs wild-type transposon end (log2 (normalized fold change)); transposon end mutated: right end (5 bp flank + 75 bp right end); higher = more efficient transposition
Summary of the method: (§1)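 Pools of 1549 left-end or 1849 right-end barcoded transposon variants were cloned into a pUC57 mini-transposon donor and co-transformed into E. coli BL21(DE3) with a T7-driven effector plasmid carrying a CRISPR array, tniQ-cas8-cas7-cas6 and tnsA-tnsB-tnsC. Plating used 0.1 mM IPTG at 37°C for 18 h, and input plasmids and genomic integration junctions were PCR-amplified for Illumina sequencing, with two biological output replicates and four reference barcodes. Relative integration efficiency is the log-transformed fold change of output over input barcode abundance, normalised to the reference barcodes.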

[2] = tested on: VchCAST RNA-guided transposition machinery (E. coli BL21(DE3) host, lacZ target); assay: relative integration efficiency (T-LR orientation) vs wild-type transposon end (log2 (normalized fold change)); transposon end mutated: right end (5 bp flank + 75 bp right end); higher = more efficient transposition
Summary of the method: as §1

| Sequence | relative integration efficiency (log2) [1] | relative integration efficiency (log2) [2] |
| --- | --- | --- |
| ACATTTGTTGATACAACCATAAAAGGATAATTACCCCCATAAATTGATAATTATCCCACCCCATTTAACTATAACGCTCTGATCATAGTCAGACCAACATTGCTACGACCCGTATTCGCACCGACAC | -1.2 ± 0.22 | 1.78 ± 0.039 |
| ACATTTGTTGATACAACCATAAAGTGATATTTACAACCATAAGTTGATATTTTTCACACCCATAAATTGATATTGCCTCTGATCATAGTCAGACCAACATTGCTACGACCCGTATTCGCACCGACAC | -0.0454 ± 0.018 | 0.319 ± 0.19 |
| ACATTTGTTGATACAACCATAAAATGATAATTCACACCATAAATTGATAATTATCACACCCATAAATTGATATTGCCTCTGATCATAGTCAGACCAACATTGCTACGACCCGTATTCGCACCGACAC | -0.218 ± 0.014 | -0.473 ± 0.22 |
| ACATTTGTTGATACACCCATAAATTGATAATTACACCCATAAATTGATAATTATCACAACCATAAGTTGATATTTTCTCTGATCATAGTCAGACCAACATTGCTACGACCCGTATTCGCACCGACAC | -0.361 ± 0.17 | -0.206 ± 0.42 |
| ACATTTGTTGATACAACCATAAGTTGATATTTTCACCCATAAATTGATAATTATCACACCCATAAATTGATAATTACTCTGATCATAGTCAGACCAACATTGCTACGACCCGTATTCGCACCGACAC | 2.44 ± 0.29 | 2.73 ± 0.044 |
| ACATTTGTTGATACAACCATAAAATGATAATTACACCCATAAATTGATAATTATCACACCCATAAATTGATATTGCCTCTGATCATTTACTTTTGGTTACATATTTAGTCAGACCAAGCACCGACAC | 0.0213 ± 0.19 | 0.713 ± 0.049 |
| ACATTTGTTGATACAACCATAAAATGATAATTACACCCATAAATTGATAATTATCACACCCATAAATTGATATTGCCTCTGATCATCAACCATAAAATGATAATTAAGTCAGACCAAGCACCGACAC | 0.146 ± 0.35 | 0.201 ± 0.068 |
| ACATTTGTTGATACAACCATAAAATGATAATTAACAAACGCCCGGTCGCCGGCTCAACAAACGCCCGGTCGCGGTACTCTGATCATAGTCAGACCAACATTGCTACGACCCGTATTCGCACCGACAC | -1.98 ± 0.26 | 1.12 ± 0.068 |
| ACATTTGTTGATACAACCATAAGTTGATATTTTCAACCATATATTGATATCTCTCACACCCATAAATTGATAATTACTCTGATCATAGTCAGACCAACATTGCTACGACCCGTATTCGCACCGACAC | -0.464 ± 0.15 | 0.134 ± 0.11 |
| ACATTTGTTGATACAACCATAAAATGATTATTACACCCATAAATTGATAATTGTGACACCGAATTTAACTATAACGCTCTGATCATAGTCAGACCAACATTGCTACGACCCGTATTCGCACCGACAC | -1.18 ± 0.23 | 2.3 ± 0.095 |
| ACATTTGTTGATACAACCATAAAAGGATAATTACCCCCATCAATTGATAATTATCCCACCCCATTTAACTATAACGCTCTGATCATAGTCAGACCAACATTGCTACGACCCGTATTCGCACCGACAC | -2.87 ± 0.26 | -0.233 ± 0.32 |
| ACATTACAAGATACAACCATAAAATGATAATTACACCCATAAATTGATAATTATCACACCCATAAATTGATATTGCCTCTGATCATAGTCAGACCAACATTGCTACGACCCGTATTCGCACCGACAC | -5.91 ± 0.056 | -4.65 ± 0.93 |
| ACATTTGTTGATACAACCATAAAATGATAATTAATAATTATCACCCATAAATTGATAATTATCACACCCATAAATTGATATTGCCTCTGATCATAGTCAGACCAACATTGCTACGACCCGTATTCGC | -3.32 ± 0.2 | -0.503 ± 0.38 |
| ACATTTGTTGATACAACCAATAAATGATAATTACACCCATAAATTGATAATTGTGACACCGAATTTAACTATAACGCTCTGATCATAGTCAGACCAACATTGCTACGACCCGTATTCGCACCGACAC | -1.29 ± 0.29 | 2.09 ± 0.064 |
| ACATTTGTTGATACAACCATAAAATGATAATTACTCTGATCATAGTCAGACCAACATTGCTACCACCCATAAATTGATAATTATCAGTGGGTATTTAACTATAACGGACCCGTATTCGCACCGACAC | -1.54 ± 0.53 | 1.601 ± 0.014 |
| ACATTTGTTGATACAACCATAAAATGATTTTTACACCCATAAATTGATAATTATCACACCCATAAATTGATATTGCCTCTGATCATAGTCAGACCAACATTGCTACGACCCGTATTCGCACCGACAC | -0.483 ± 0.081 | 0.183 ± 0.26 |
| ACATTTCTTGATACAACCATAAAATGATAATTACACCCATAAATGGATAATTATCACACCCAATTTAACTATAACGCTCTGATCATAGTCAGACCAACATTGCTACGACCCGTATTCGCACCGACAC | -2 ± 0.23 | 0.0926 ± 0.35 |
